For assay [1], the system named is CFA-induced thermal hyperalgesia. The assay can be described thus: Hargreaves Model of Hyperalgesia in rats. The class given is in vivo, rat. The method, then:
Hargreaves Model of Hyperalgesia in rats. Rats aged 4-6 weeks (weight range, 180-220 g) were used for intraplantar (ipl) administrations of various antibodies and evaluation of their efficacy in the Hargreaves model of inflammatory pain. Chronic inflammatory pain is induced by injecting a low volume (50 μl) of complete Freund's adjuvant (CFA; heat-killed M. tuberculosis—Sigma, St. Louis, Mo.—suspended in oil:saline 2:1 emulsion) into the right hind paw. The paw withdrawal latency in response to the application of a radiant stimulus onto the plantar surface of both right and left paw was measured using the plantar Analgesia Meter equipment for paw stimulation (IITC Life Science, Woodland Hills, Calif.). The time taken by the animal to respond by licking or flicking its paw is interpreted as positive response (paw withdrawal latency). After 48 h of the CFA injection, the baseline for latency paw withdrawal was measured and the mAbs tested. […] A cut-off time (20 sec) is established at the end of which the heat source shuts off automatically to avoid tissue damage. Animals were kept (randomized) one per cage and staff performing pain experiments are blinded to the content of injectable compounds. Percentage of maximum possible effect (% MPE) was calculated using the formula % MPE=(Test Latency−Baseline Latency)×100/(Cut-off−Baseline Latency).

Assay [2] deals with OD1-evoked Nav1.7-mediated spontaneous pain behaviours. It is filed as in vivo, mouse. As to conditions: 100 μg, injected 60 minutes prior to OD1; 20 min after the injection.
For the next assay, the target named is T1, FC5DIE3IR (Homo sapiens, UniProt Q15858).
T1 construct: The supernatant was collected and loaded on a 5 ml MabSelect™ SuRe™ column; made in house; host or cells: CHO-3E7 (transient, pTT5 vector), purified from supernatant
In words: Surface Plasmon Resonance for VHH antibodies, immobilized FC5DIE3IR. It is filed as binding. As to conditions: for Kd / Rmax (RU) / ka / kd: immobilized FC5DIE3IR; for ka / kd: 25 C. The protocol: (§1) Surface Plasmon Resonance for VHH antibodies. For SPR experiments, IMAC-purified VHHs DI-D, DI-4, DI-16, DI-28 and DI-48 were passed through a Superdex 75 (GE Healthcare) column for SEC purification in HBS-EP+buffer (10 mM HEPES, pH 7.4, containing 150 mM NaCl, 3 mM EDTA and 0.05% P20), connected to an AKTAPurifier (GE Healthcare) at a flow rate of 1 ml/min. Monomeric VHH fractions were collected and protein concentration determined by measuring A280 measurement. Using a Biacore T200 instrument (GE Healthcare), approximately 500-1000 RUs of FC5DIE3IR, FC5 and an irrelevant VHH (2A3-H4) were immobilized on a CM5 Series S sensor chip (GE Healthcare) at pH 4.0 using standard amine coupling according to the manufacturer's instructions (GE Healthcare). […] Surfaces were regenerated by washing with a 120 s pulse of 10 mM glycine pH 1.5. Data were analyzed with Biacore T200 Software v 3.0 and affinities determined using steady state binding or a 1:1 binding model.

A further assay deals with FC5. In words: Surface Plasmon Resonance for VHH antibodies, immobilized FC5. The class given is binding. As to conditions: SPR; 25 C. The protocol:
as §1

For another assay, the system named is 2A3-H4. In words: Surface Plasmon Resonance for VHH antibodies, immobilized irrelevant VHH 2A3-H4. It is filed as binding. As to conditions: SPR; 25 C. The method, then: as §1

Values joined by “and” are separate entries in the source; they are usually repeats but may differ in a detail not shown here. Identical values can stand only once.

Chain of FC5 (as listed by the source): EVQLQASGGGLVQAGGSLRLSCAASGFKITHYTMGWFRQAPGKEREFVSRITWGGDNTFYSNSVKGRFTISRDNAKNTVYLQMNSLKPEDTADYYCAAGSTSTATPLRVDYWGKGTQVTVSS

Consider “TLESEEDFRKYFYYLEGSKDALLCGFSTDS (Peptide #2 = 30 amino acid sequence located on loop3 of the D1 domain of the Nav1.7 polypeptide) [P2]”, for which the “Latency paw withdrawal time” value in assay [1] (peptide 375 μg co-injected with 3A8 75 μg, intraplantar (FIG. 18)) came to 6.76 ± 0.32 s. Moreover, the “3A8-induced reversal of hyperalgesia (% MPE)” value in assay [1] (peptide 375 μg co-injected with 3A8 75 μg, intraplantar, 4 h) was 13.49%±2.62.

On to `CC(=O)Nc1cccc(Nc2ncnc(N3CCC(OCc4ccc(OC(F)(F)F)cc4)CC3)n2)c1C` [TC-N1752, reference compound], for which the “Percentage of effect after injection (on left paw withdrawal)” value was determined as 0% in assay [1] (100 μg intraplantar, 0 h); 37.01% in assay [1] (100 μg intraplantar, 1 h); 44.77% in assay [1] (100 μg intraplantar, 2 h); 49.05% in assay [1] (100 μg intraplantar, 4 h). The Latency paw withdrawal in assay [1] (100 μg intraplantar, 1 h) was 8.15 ± 1.6 s and 8.15 ± 2.60 s; in assay [1] (100 μg intraplantar, 2 h) it was 11.17 ± 1.19 s; in assay [1] (100 μg intraplantar, 4 h), 11.90 ± 0.99 s. The “Percentage of maximum possible effect (% MPE)” value in assay [1] (100 μg intraplantar, 4 h (FIG. 27B)) is reported as 46.47%±7.14. Further, in assay [2], the “Time spent in pain behaviors (saline plus OD1 = 100%)” value is given as 51.62%±4.85.

B1: DI-16: VHH from FC5DIE3IR llama immune library; SEQ ID NO: 49; clone DI-11 has identical sequence (protein)
VHH: QAQVQLVESGGGLVQAGGSLRLSCAASGRTVSSYTMGWFRQAPGKERRFVATVNSSGRGTHYADSVKGRFTISRDNAKNTVYLQMNSLKPEDTAVYYCAAAPYPDGSLGPGYDYWGQGTQVTVSS
modifications: DI-16
Take B1: in the assay with FC5DIE3IR, the Kd is 4.3 nM, the “Rmax (RU)” value stood at 317.9 RU, the “ka” value is 619000 M⁻¹ s⁻¹ and the “kd” value was determined as 0.00266 s⁻¹. Moreover, in the assay on FC5, the “Binding to immobilized FC5 (comment, in words)” value is “No binding”. Further, the “Binding to immobilized 2A3-H4 (comment, in words)” value (“Binding to immobilized 2A3-H4” for short) with 2A3-H4 is listed as “No binding”.

B2: DI-48: VHH from FC5DIE3IR llama immune library; SEQ ID NO: 59 (protein)
VHH: QAQVQLVESGGGLVQAGGSLRLSCAASGRTFSTYVMGWFRQTPGKEREFVAGFSWSGDYAIYVNSVKGRFTISRDNAKNTVYLQMNSLRPEDTAVYYCAARQRGGYSGRSYYTGRNDYEYWGQGTQVTVSS
modifications: DI-48
On to B2, for which the “Binding to immobilized FC5DIE3IR (comment, in words)” value with FC5DIE3IR (SPR) was “Low affinity,”. Also, the “Binding to immobilized FC5 (comment, in words)” value in the assay with FC5 is recorded as “No binding”. The “Binding to immobilized 2A3-H4” value in the assay on 2A3-H4 is reported as “Very low”.

B3: DI-4: VHH from FC5DIE3IR llama immune library; SEQ ID NO: 47 (protein)
VHH: QVQLVESGGGLVQPGGSLRLSCAASGFTFSNYWMYWVRQAPGKGLERVSSIYISGGNTYYADSVKGRFTISRDNAKNTLYLQMNSLKSEDTAVYYCVKGDTFGGMDYWGKGTQVTVSS
modifications: DI-4
As to B3, the “Rmax (RU)” value with FC5DIE3IR came to 469.2 RU. In addition, in the assay on FC5, the “Binding to immobilized FC5 (comment, in words)” value is listed as “No binding”. Also, in the assay on 2A3-H4, the “Binding to immobilized 2A3-H4” value was “Very low non-”.

B4: DI-28: VHH from FC5DIE3IR llama immune library; SEQ ID NO: 54 (protein)
VHH: QAQVQLVESGGGLVQAGGSLRLSCAASGRTFSSSGMGWFRQAPGKDRELVAGISWSGDSAYYANSVAGRFTISRDNINNTVYLQMNSLKPEDTAVYYCAARQGGRNYATSPREYDYWGQGTQVTVSS
modifications: DI-28
As to B4, in the assay with FC5DIE3IR, the dissociation constant Kd came out at 4.4 nM, the “Rmax (RU)” value is on record as 318.3 RU, the “ka” value worked out at 461000 M⁻¹ s⁻¹ and the “kd” value was determined as 0.00205 s⁻¹. Moreover, in the assay on FC5, the “Binding to immobilized FC5 (comment, in words)” value is “No binding”. In addition, the “Binding to immobilized 2A3-H4” value with 2A3-H4 is “No binding”.

For the origin of these results see patent US11945858B2, “Antibodies and antibody fragments against HNAV1.7 channel and their use in pain and cancer indications” (NATIONAL RESEARCH COUNCIL OF CANADA, priority 2018, dated 2024).
